Measurements as given in patent US20220396822A1, “Method for Measuring Pentosidine and Measurement Kit” (Kikkoman Corporation, priority 2019, published 2022).

Key:
Format in all cases: biochemical
[1] = Pentosidine quantification test (DA-67/peroxidase, A658); conditions: 37° C., pH 7.0
Procedure: The following reagents were prepared, and pentosidine was measured using Bio Majesty JCA-BM1650 (manufactured by JEOL Ltd.).
0.2 μM, 0.4 μM, 0.6 μM, 1.0 μM, 2.0 μM or 4.0 μM pentosidine solution (prepared using the same pentosidine as in Example 2)
120 mM potassium phosphate buffer (pH 7.0)
0.2 mM DA-67 (10-(carboxymethylaminocarbonyl)-3,7-bis(dimethylamino)phenothiazine, sodium salt) (manufactured by FUJIFILM Wako Pure Chemical Corp.)
25 μL of each sample was added to 50 μL of the first reagent, and the mixture was incubated at 37° C. for 5 minutes. Then, 25 μL of the second reagent was added thereto, and pentosidine oxidation reaction mediated by PenOX2 and reaction for the detection of hydrogen peroxide produced through the reaction were allowed to proceed at 37° C. for 5 minutes.
In the reaction for the detection of hydrogen peroxide, DA-67 was oxidized, with concomitant consumption of […], into methylene blue which in turn developed color while absorbance (A658) was elevated. […] Elevation in A658 was able to be confirmed immediately after addition of the second reagent containing PenOX2.
Subsequently, the amount of elevation in A658 (ΔA) caused by the oxidation of pentosidine was calculated according to the following expression.
ΔA=(Absorbance 5 minutes after addition of the second reagent)−(Absorbance immediately before addition of the second reagent×0.75)

[2] = Substrate specificity analysis of amino acid degrading enzymes (reaction rate, A555); conditions: room temperature, pH 6.8, amino acids 4 mM, pentosidine 2 mM solutions
Procedure: The amino acid eliminating enzyme 1 liquid obtained in Example 12 was diluted to 0.134 U/ml with a 0.1 M potassium phosphate buffer (pH 6.8).
Pentosidine (which was the same as in Example 12) was dissolved at 2 mM in deionized water. Various amino acids were each dissolved at 4 mM in deionized water.
Peroxidase (manufactured by Toyobo Co., Ltd.) (3.99 U/ml), 4-aminoantipyrine (manufactured by Fluka/Honeywell International Inc.) (1.8 mM), and TOOS (manufactured by Dojindo Laboratories Co., Ltd.) (2 mM) were dissolved in deionized water.
Every measurement was performed at room temperature unless otherwise specified. A 96-well microwell plate (manufactured by Nunc/Thermo Fisher Scientific, Inc.) was used in reaction.
25 μl of each amino acid solution or the pentosidine solution of (2) and 25 μl of the coloring reagent of (3) were added in order to 50 μl of the enzyme liquid of (1). At the start and ten minutes later, absorbance at 555 nm was measured. A slope of elevation in absorbance was regarded as a reaction rate for the target substrate. […]
Every measurement was performed at room temperature unless otherwise specified. […] At the start and ten minutes later, absorbance at 555 nm was measured. A slope of elevation in absorbance was regarded as a reaction rate for the target substrate.

[3] = Method for measuring enzymatic activity (pentosidine oxidase activity, A555), Examples 9 and 10; conditions: 37° C., pH 7.5; 1 mg enzyme powder in 1 mL deionized water
Procedure: The amount of the enzyme that produced 1 μmol of hydrogen peroxide per minute at 37° C. was defined as 1 unit (U). The activity was calculated according to the following expression.
Each buffer was prepared as a 50 mM (final concentration) citric acid-100 mM potassium phosphate buffer (pH 4.0 to 7.5), a 100 mM (final concentration) potassium phosphate buffer (pH 6.5 to 8.0), and a 100 mM (final concentration) glycine buffer (pH 8.0 to 11.0). Enzyme reaction was performed at each pH at a temperature of 37° C. using these buffers. […] It was therefore concluded that the optimum pH of PenOX2 is pH 6.5 to 8.0 and is most preferably pH 7.5.
The activity of PenOX2 was measured at varying temperatures using a 50 mM (final concentration) potassium phosphate buffer (pH 7.5). […] It was thus concluded that the range of the optimum temperature of PenOX2 is from 37° C. to 50° C.
As mentioned above, both PenOX1 and PenOX2 had pentosidine oxidase activity. When the percent match between their amino acid sequences was examined using the BLAST program, the amino acid sequence homology therebetween was 38.2%. […] The amino acid sequence homology to PenOX1 and PenOX2 and pentosidine oxidase activity of each enzyme were as follows.

Molecule	substrate having the highest reaction rate [2]	specific activity (pentosidine oxidase) as a reference value [3] [U/mg]	further results
PenOX1: protein having the amino acid sequence of SEQ ID NO: 2, pentosidine oxidase from a filamentous fungus of the genus Sarocladium (protein, listed as Sarocladium sp.) MKSPSLAVAGLLLGSSSLSHATQLRIETRKSLNSRIANVHIDVDAPVAHQVVFTYGPCDSESQENAHHVIAQSQKLEGRKPHRLIWTMPKDLHPDDCISAWGESGDLLGRSVPQKVAHKEMRRRKRDDSDYSIPMNSSSGIDVYGPWFDGVALLEKSDNHNVDVEAAKAKEIAIVGAGMAGLTTYFILSEAGLSNLTILEASGRLGGRVRTEYLSGGPRDHSYAEMGPMRIPYQARFGDKAYNISDQAIFFRLVEKVNERNKKLGNTKDLINLIPFIQSSPNGLAYYQGNKLENGLPPTQADVAADPALGNESPEIPESAQELAAQLQRALPNAEFLELMATNFWQAHAEFLENQGPAGLPGDQWSEFAFLVNYLNATVFDANAVTGGYDWHSSLDRSSLVGMNLLPNAFHPLVDDITKFNAKVEKVQLDEKTSRLKLHWRANYTDPELESQSFDYAILSPTMPAVQKLRLPGLPFAMRNAVDSMPYASACKVALEYRTRFWEKFDNPIYGSCSTSTDIPGIGSVCYPSSNINGSGPASLLASYEIGRPYGAEWAGIPEEQHVQYVIDAMIDIHGEVARREFTGKCKRKCWALDEFSNGGWASPTVGNHETYLPSFFETHSHMIFVGEHTSYTHAWIASAIESAVRGSVQLLLELGLIDEAKDVVNTWMARWISVVSDLSKAVVSGASA			pentosidine oxidizing activity [1]: exhibited pentosidine oxidizing activity
amino acid degrading enzyme 1: mature escapin derived from Aplysia californica (SEQ ID NO: 15) expressed in Aspergillus sojae (protein, listed as Aplysia californica) DGVCRNRRQCNKEVCGSSYDVAIVGAGPGGANSAYMLRESGLDIAVFEYSDRVGGRLFTYQLPNTPDVNLEIGGMRFIEGAMHRLWKVISELGLTPKVFKEGFGKEGRQRFYLRGQSLTKKQVKSGDVPYDLSPEEKANQGRLVEYYLEKLTGLQLNGGPLKREVALKLTVPDGRFLYDLTFDEALDLVASPEGKEFARDTHVFTSEVTLDASAISIFDDHLGEDYYGSEIYTLEEGMSSVPQGLLQTFLDAAKSNEFFPNNHLKALRRRTNGQYVLYFEPTTSKDGQTTINYLEPLKVVCAQRVILAMPVYALRQLDWSQLRNDRATQAYRAVRPMPASKVFMTFDQPWWLQNERKSWVTKSDALFSQMYDWQKSEASGDYILIASYADGLKAQYLRELKNQGEDIPGSDPGYNQVTVPLKDAILEHLTEAYGVERDSIPEPVTAASQFWTDYPFGCGWITWRAGYHFDDVISTMRRPSLKDEVYVVGSDYSWGLISSWIEGALETSENVINDYFL	arginine		
Crotalus Atrox-Derived Amino Acid Oxidase Type I: purchased enzyme manufactured by Merck KGaA, SEQ ID NO: 13 (protein, Crotalus atrox) AHDRNPLEECFRETDYEEFLEIAKNGLTATSNPKRVVIVGAGMAGLSAAYVLAGAGHQVTVLEASERVGGRVRTYRKKDWYANLGPMRLPTKHRIVREYIKKFDLKLNEFSQENENAWYFIKNIRKRVREVKNNPGLLEYPVKPSEEGKSAAQLYVESLRKVVEELRSTNCKYILDKYDTYSTKEYLLKEGNLSPGAVDMIGDLLNEDSGYYVSFIESLKHDDIFGYEKRFDEIVGGMDQLPTSMYEAIKEKVQVHFNARVIEIQQNDREATVTYQTSANEMSSVTADYVIVCTTSRAARRIKFEPPLPPKKAHALRSVHYRSGTKIFLTCTKKFWEDDGIHGGKSTTDLPSRFIYYPNHNFTSGVGVIIAYGIGDDANFFQALDFKDCADIVINDLSLIHELPKEDIQTFCHPSMIQRWSLDKYAMGGITTFTPYQFQHFSEALTAPFKRIYFAGEYTAQFHGWIDSTIKSGLTAARDVNRASENPSGIHLSNDNEF		0.022	
amino acid eliminating enzyme 2: Crotalus adamanteus-derived L-amino acid oxidase Type I, manufactured by Merck KGaA (SEQ ID NO: 19) (protein, listed as Crotalus adamanteus) AHDRNPLEECFRETDYEEFLEIAKNGLTATSNPKRVVIVGAGMAGLSAAYVLAGAGHQVTVLEASERVGGRVRTYRKKDWYANLGPMRLPTKHRIVREYIKKFDLKLNEFSQENENAWYFIKNIRKRVREVKNNPGLLEYPVKPSEEGKSAAQLYVESLRKVVEELRSTNCKYILDKYDTYSTKEYLLKEGNLSPGAVDMIGDLLNEDSGYYVSFIESLKHDDIFGYEKRFDEIVGGMDQLPTSMYEAIKEKVQVHFNARVIEIQQNDREATVTYQTSANEMSSVTADYVIVCTTSRAARRIKFEPPLPPKKAHALRSVHYRSGTKIFLTCTKKFWEDDGIHGGKSTTDLPSRFIYYPNHNFTSGVGVIIAYGIGDDANFFQALDFKDCADIVINDLSLIHELPKEDIQTFCHPSMIQRWSLDKYAMGGITTFTPYQFQHFSEALTAPFKRIYFAGEYTAQFHGWIDSTIKSGLTAARDVNRASENPSGIHLSNDNEF	leucine		
Trichoderma viride-Derived Lysine Oxidase: purchased enzyme manufactured by Merck KGaA, SEQ ID NO: 14 (protein, Trichoderma viride) MDNVDFAESVRTRWARRLIREKVAKELNILTERLGEVPGIPPPREGRFLGGGYSHDNLPSDPLYSSIKPALLKEAPRAEEELPPRKVCIVGAGVSGLYIAMILDDLKIPNLTYDIFESSSRTGGRLYTHHFTDAKHDYYDIGAMRYPDIPSMKRTFNLFKRTGMPLIKYYLDGENTPQLYNNHFFAKGVVDPYMVSVANGGTVPDDVVDSVGEKLQQAFGYYKEKLAEDFDKGFDELMLVDDMTTREYLKRGGPKGEAPKYDFFAIQWMETQNTGTNLFDQAFSESVIDSFDFDNPTKPEWYCIEGGTSLLVDAMKETLVHKVQNNKRVEAISIDLDAPDDGNMSVKIGGKDYSGYSTVFNTTALGCLDRMDLRGLNLHPTQADAIRCLHYDNSTKVALKFSYPWWIKDCGITCGGAASTDLPLRTCVYPSYNLGDTGEAVLLASYTWSQDATRIGSLVKDAPPQPPKEDELVELILQNLARLHAEHMTYEKIKEAYTGVYHAYCWANDPNVGGAFALFGPGQFSNLYPYLMRPAAGGKFHIVGEASSVHHAWIIGSLESAYTAVYQFLYKYKMWDYLRLLLERWQYGLQELETGKHGTAHLQFILGSLPKEYQVKIV		0.063	
